From patent publication US12404345B2, “Humanized antibodies against iRHOM2” (SCIRHOM GMBH, priority 2021, dated 2025)

Columns and labels:
Details in all cases: antibody at 3 μg/ml
[1] = target: T1, endogenous iRhom2 on RPMI-8226 cells (Homo sapiens, UniProt Q6PJF5); assay: FACS binding to RPMI-8226 cells endogenously expressing iRhom2
T1 construct: RPMI-8226 cells, a human B lymphocytic cell line endogenously expressing iRhom2; host or cells: RPMI-8226
T1 sequence (Q6PJF5 1-856): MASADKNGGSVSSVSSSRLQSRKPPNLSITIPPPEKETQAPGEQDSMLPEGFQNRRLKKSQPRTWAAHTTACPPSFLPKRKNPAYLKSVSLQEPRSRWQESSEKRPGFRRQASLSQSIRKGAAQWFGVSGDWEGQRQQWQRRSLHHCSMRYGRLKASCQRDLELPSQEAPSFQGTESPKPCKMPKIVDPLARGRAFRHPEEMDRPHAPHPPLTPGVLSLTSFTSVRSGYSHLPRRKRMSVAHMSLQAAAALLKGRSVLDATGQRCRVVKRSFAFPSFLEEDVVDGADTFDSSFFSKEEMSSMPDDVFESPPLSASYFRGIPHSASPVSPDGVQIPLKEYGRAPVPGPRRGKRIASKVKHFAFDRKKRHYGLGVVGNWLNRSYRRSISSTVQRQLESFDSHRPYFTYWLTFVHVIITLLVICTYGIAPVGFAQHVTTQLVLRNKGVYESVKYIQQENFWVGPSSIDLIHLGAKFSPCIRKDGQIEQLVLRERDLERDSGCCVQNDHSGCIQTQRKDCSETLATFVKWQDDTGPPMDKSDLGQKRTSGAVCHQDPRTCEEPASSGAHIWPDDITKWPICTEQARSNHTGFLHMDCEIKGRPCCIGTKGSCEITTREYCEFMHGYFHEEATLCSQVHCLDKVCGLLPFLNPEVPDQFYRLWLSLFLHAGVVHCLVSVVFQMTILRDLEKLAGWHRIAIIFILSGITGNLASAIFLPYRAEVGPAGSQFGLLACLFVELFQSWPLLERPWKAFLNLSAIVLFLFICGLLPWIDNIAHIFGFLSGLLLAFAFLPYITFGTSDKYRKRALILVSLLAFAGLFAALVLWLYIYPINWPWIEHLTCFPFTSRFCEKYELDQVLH
Protocol: (§1) In this study, binding specificity analyses of the humanized antibody 42-B-02 as a representative example of the antibodies of the invention in cell lines endogenously expressing iRhom2 were performed. The studies were conducted on RPMI-8226 cells, a human B lymphocytic cell line endogenously expressing iRhom2 but being endogenously negative for iRhom1, on THP-1 cells, a human monocytic cell line endogenously expressing both iRhom2 and iRhom1 and on RH-30 cells, a human […] cell line endogenously negative for iRhom2 but endogenously expressing iRhom1.
(§2) In brief, human RPMI-8226 cells (Deutsche Sammlung von Mikroorganismen und Zellkulturen, Germany), THP-1 cells (American Type Culture Collection, USA) and RH-30 cells (Deutsche Sammlung von Mikroorganismen und Zellkulturen, Germany) were harvested with 10 mM EDTA in PBS, washed and resuspended in FACS buffer (PBS, 3% FBS, 0.05% sodium azide), and seeded in Nunc U-bottom 96-well plates (Thermo Fisher Scientific, USA) at approximately 2×10^5 cells per well. In order to pellet cells and remove supernatants, the plates were centrifuged at 1,500 rpm and 4° C. for 3 minutes. […] Finally, cells were resuspended in 150 μl per well of FACS buffer and analyzed using a BD Accuri™ C6 Plus flow cytometer (Becton Dickinson, Germany).

[2] = target: T2, endogenous iRhom2 on THP-1 cells (Homo sapiens, UniProt Q6PJF5); assay: FACS binding to THP-1 cells endogenously expressing iRhom2 and iRhom1
T2 construct: THP-1 cells, a human monocytic cell line endogenously expressing both iRhom2 and iRhom1; host or cells: THP-1
T2 sequence (Q6PJF5 1-856): T1 sequence (Q6PJF5 1-856)
Protocol: as §1, §2

RH-30 cells = assay: FACS binding to RH-30 cells endogenously negative for iRhom2; parameters: species or system human
Protocol: as §1, §2

B1: 42-B-02: humanized antibody binding human iRhom2; HCVD SEQ ID NO 33, LCVD SEQ ID NO 37 (antibody, V domains shown)
VH: QVTLRESGPALVKPTQTLTLTCTFSGFSLSTFGRGVGWIRQPPGKALEWLAHIWWDDEKYYNSALKSRLTISKDTSKNQVVLTITNMDPVDTATYYCARIQNYGSNYWYFDVWGQGTLVTVSS
VL: AIQLTQSPSSLSASVGDRVTITCRASSRISYMFWYQQKPGKAPKVLIYDTSNLASGVPSRFSGSGSGTDYTLTISSLQPEDFATYYCQQWNSYPLTFGQGTKLEIK
modifications: antibody sequences
[1]
  binding to RPMI-8226 cells (endogenously expressing iRhom2, negative for iRhom1): strong binding
[2]
  binding to THP-1 cells (endogenously expressing iRhom2 and iRhom1): strong binding
RH-30 cells
  binding to RH-30 cells (endogenously negative for iRhom2, expressing iRhom1): no binding
